The values that follow come from patent US20070004636A1, “Method of degrading transcriptional factors of saccharometabolism-associated gene, method for inhibiting the degradation, and agent for inhibiting degradation and degradation inhibitor” (priority 2002, published 2007).

Assay [1] relates to human HNF-4α. Description: in vitro protein degradation test of HNF-4α by calpain (Western blotting). It counts as biochemical. The conditions noted are these: 1 hour at 37° C. On the procedure:
Using the HNF-4α expression plasmid, in vitro synthesis of HNF-4α protein was conducted using the TNT T7 Quick Coupled Transcription/Translation System (Promega, Inc.). That is, the HNF-4α expression plasmid was mixed with TNT T7 Quick Master Mix, and then incubated for 1.5 hours at 30° C. in the presence of methionine to synthesize HNF-4α.
The in vitro protein degradation test was carried out by adding m-calpain extracted from rabbit muscle (Protease, Calcium-Activated Neutral (calpain), Sigma Chemical Co.) at a final concentration of 50 μg/mL to the synthesized HNF-4α, and then incubating for 1 hour at 37° C. in the presence of 200 mM Tris-HCl (pH 7.8)/1 mM dithiothreitol (DTT)/6 mM CaCl2. To conduct a degradation test in the absence of calcium, a test sample was prepared by adding 10 mM ethylenediaminetetraacetic acid (EDTA) instead of 6 mM CaCl2, and the sample was then incubated in a similar manner. The samples after incubation were added to an equal volume of 2× sodium dodecyl sulfate (SDS) sample buffer (4% SDS/125 mM Tris-HCl, pH 6.8/20% glycerol/0.01% bromphenol blue (BPB)/10% β-mercaptoethanol), heated for 5 minutes, and subjected to 10% SDS-PAGE for separation. Thereafter, Western blotting was carried out to detect HNF-4α using anti-HNF-4α antibody/HNF-4α (C-19) antibody (Santa Cruz Biotechnology, Inc.) and anti-Xpress antibody (Invitrogen, Inc.). An ECL Western blotting detection kit (Amersham pharmacia biotech) was used for the detection.
The final concentration of human m-calpain in the reaction system was 2.33 mg/mL as the protein concentration of the lysate of sf-9 cells that expressed human m-calpain. The final concentration of rat m-calpain in the reaction system was 59 units/mL. A degradation test was also conducted in the same manner without addition of calpain. Further, to test for degradation in the absence of calcium, a sample was prepared by adding 10 mM of EDTA instead of 6 mM CaCl2, and a degradation test was conducted with the sample in a similar manner. The samples after incubation were added to an equal volume of 2×SDS sample buffer, heated for 5 minutes, and subjected to 5-20% SDS-PAGE for separation. Thereafter, Western blotting was carried out to detect HNF-4α using anti-HNF-4α antibody/HNF-4α (C-19) antibody. An ECL Western blotting detection kit was used for the detection.
An in vitro protein degradation test was carried out by adding μ-calpain to HNF-4α at a final concentration of 50 units/mL, and incubating for 1 hour at 37° C. in the presence of 200 mM Tris-HCl (pH 7.8)/1 mM DTT/6 mM CaCl2. […]

The target in assay [2] is T1, human HNF-4α (Homo sapiens, UniProt P41235).
T1 construct: expressed in transfected cells; host or cells: HEK293T
T1 sequence (P41235 10-474): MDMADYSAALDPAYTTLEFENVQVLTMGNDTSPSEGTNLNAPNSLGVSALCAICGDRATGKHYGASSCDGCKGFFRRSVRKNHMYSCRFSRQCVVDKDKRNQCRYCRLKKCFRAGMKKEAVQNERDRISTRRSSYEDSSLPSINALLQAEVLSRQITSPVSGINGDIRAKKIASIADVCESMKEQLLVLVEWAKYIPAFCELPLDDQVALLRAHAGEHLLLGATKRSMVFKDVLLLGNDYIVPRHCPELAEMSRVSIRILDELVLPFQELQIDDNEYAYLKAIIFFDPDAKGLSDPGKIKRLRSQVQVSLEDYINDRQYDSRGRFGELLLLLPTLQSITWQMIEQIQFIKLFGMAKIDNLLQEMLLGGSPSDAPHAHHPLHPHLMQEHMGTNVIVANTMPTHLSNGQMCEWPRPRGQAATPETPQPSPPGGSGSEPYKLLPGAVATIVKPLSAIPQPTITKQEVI
Nature of the assay: binding test by intracellular coexpression/immunoprecipitation in HEK293T cells. In kind it is cell-based. The settings on record: FLAG-tagged m-calpain coexpressed with Xpress-tagged HNF-4α in HEK293T cells. On the procedure: First, the m-calpain gene was co-transfected with the HNF-4α gene into HEK293T cells. More specifically, after culturing a total number of 1.3×10^6 HEK293T cells for 4 hours at 37° C. in the presence of 5% CO2 (Petri dish with 60 mm diameter), 5 μg of HNF4α expression plasmid or pcDNA 3.1/His plasmid as a negative control was transfected thereto together with 5 μg of m-calpain expression plasmid using the FuGENE 6 Transfection Reagent (Roche Applied Science). After two days culturing, the cells were washed with cold phosphate buffered saline (−) (hereunder, referred to as “PBS(−)”), suspended in 500 μl of cell lysis buffer (20 mM HEPES, pH 7.5/150 mM NaCl/1 mM EDTA/1% Triton X-100/1 mM phenylmethyl sulfonyl fluoride (PMSF)), and left to stand on ice for 20 mins. Thereafter, the cells were subjected to centrifugation at 15,000 rpm for 20 min at 4° C. to collect the supernatant for use as cell lysate. Subsequently, the collected lysate was added to 18 μl of Protein G Sepharose 4 Fast Flow (Amersham Pharmacia Biotech) that was pretreated with TBS (pH 8.0) containing 0.1% bovine serum albumin, and mixed by inversion for 2 hours at 4° C., followed by centrifugation to collect the supernatant. 0.6 μg of anti-HNF-4α antibody/HNF-4α (C-19) antibody was added to the collected supernatant, and mixed by inversion for 1 hour at 4° C. […]

B1: human m-calpain: lysate of sf-9 insect cells coexpressing human m-calpain with calpain small subunit 1; FLAG-tagged, expressed in HEK293T cells, in Example 3 (protein, UniProt P17655 20-700; P04632 1-268, looked up)
Calpain-2 catalytic subunit: SHDRAIKYLNQDYEALRNECLEAGTLFQDPSFPAIPSALGFKELGPYSSKTRGIEWKRPTEICADPQFIIGGATRTDICQGALGDCWLLAAIASLTLNEEILARVVPLNQSFQENYAGIFHFQFWQYGEWVEVVVDDRLPTKDGELLFVHSAEGSEFWSALLEKAYAKINGCYEALSGGATTEGFEDFTGGIAEWYELKKPPPNLFKIIQKALQKGSLLGCSIDITSAADSEAITFQKLVKGHAYSVTGAEEVESNGSLQKLIRIRNPWGEVEWTGRWNDNCPSWNTIDPEERERLTRRHEDGEFWMSFSDFLRHYSRLEICNLTPDTLTSDTYKKWKLTKMDGNWRRGSTAGGCRNYPNTFWMNPQYLIKLEEEDEDEEDGESGCTFLVGLIQKHRRRQRKMGEDMHTIGFGIYEVPEELSGQTNIHLSKNFFLTNRARERSDTFINLREVLNRFKLPPGEYILVPSTFEPNKDGDFCIRVFSEKKADYQAVDDEIEANLEEFDISEDDIDDGFRRLFAQLAGEDAEISAFELQTILRRVLAKRQDIKSDGFSIETCKIMVDMLDSDGSGKLGLKEFYILWTKIQKYQKIYREIDVDRSGTMNSYEMRKALEEAGFKMPCQLHQVIVARFADDQLIIDFDNFVRCLVRLETLFKIFKQLDPENTGTIELDLISWLCFSVL
Calpain small subunit 1: MFLVNSFLKGGGGGGGGGGGLGGGLGNVLGGLISGAGGGGGGGGGGGGGGGGGGGGTAMRILGGVISAISEAAAQYNPEPPPPRTHYSNIEANESEEVRQFRRLFAQLAGDDMEVSATELMNILNKVVTRHPDLKTDGFGIDTCRSMVAVMDSDTTGKLGFEEFKYLWNNIKRWQAIYKQFDTDRSGTICSSELPGAFEAAGFHLNEHLYNMIIRRYSDESGNMDFDNFISCLVRLDAMFRAFKSLDKDGTGQIQVNIQEWLQLTMYS
modifications: FLAG tag
B1: the “degradation of HNF-4α” value with human HNF-4α [1] (in the absence of calcium (10 mM EDTA instead of CaCl2)) was “not observed”; with human HNF-4α [1] (in the presence of calcium (6 mM CaCl2), Western blotting), “observed”. Besides, in the assay with human HNF-4α [2], the “binding to HNF-4α (coprecipitation with anti-HNF-4α antibody)” value was “coprecipitated”.
